Measured values taken from article PMC12332008, “Ribosome biogenesis in plants requires the nuclear envelope and mitochondria localized OPENER complex” (Nature Communications, 2025).
Read-outs that look alike come from different tables or passages of the source.

T1: OAP1 (recombinant, 6xHis-tag removed) (Arabidopsis thaliana, UniProt F4K9I8 1-303)
T1 construct: OPENER ASSOCIATED PROTEIN 1 (OAP1), Arabidopsis thaliana, AT5G07950; printed molecular weight 34 kDa; not shown: 6xHis, N-terminal, cleaved
T1 sequence (looked up): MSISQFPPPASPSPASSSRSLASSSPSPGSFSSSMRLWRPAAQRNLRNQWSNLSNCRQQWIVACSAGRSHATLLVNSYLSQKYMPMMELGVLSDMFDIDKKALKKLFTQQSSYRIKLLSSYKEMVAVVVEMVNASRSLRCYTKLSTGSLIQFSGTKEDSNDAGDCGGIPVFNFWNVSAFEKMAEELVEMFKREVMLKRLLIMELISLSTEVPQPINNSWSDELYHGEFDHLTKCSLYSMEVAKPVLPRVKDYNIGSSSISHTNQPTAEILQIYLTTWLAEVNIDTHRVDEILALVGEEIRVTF

B1: OPNR (recombinant) (natural protein, Arabidopsis thaliana, UniProt Q6NPG7 1-195, looked up)
chain: MEAVIRKWQQKFRKGKEEMEKWEALQVRWVSLFRNASSIIQRLQEMQNHGSYGALRCLKGIEDAVVQQQMGQLESLLRSMKNVMEEFWGCVLTFEKLHRDGLQLREIESSKRRVEERIGVKPCITDCLEGLSILYDMHQSEYHLKSSILSVLSCLILKPSPGDLNALQYLVVDQPNIPKDEVQHIFDVIFAEEIK
notes: OPENER (OPNR), Arabidopsis thaliana, AT5G43822; printed molecular weight 23 kDa; also called OPENER; source: E. coli BL21(DE3), co-expressed with 6xHis-OAP1 and OAP2 from pACYCDuet-1, co-purified (Ni-NTA, Superdex200)

Legend:
[1] = biological target: 6xHis-OAP1 (Arabidopsis thaliana); experiment: co-purification of co-expressed proteins (Ni-NTA); 6xHis-OAP1, OAP2 and OPNR expressed together in E. coli BL21(DE3), purified on Ni-NTA resin by the His tag of OAP1; molar ratio from the gel
[2] = biological target: T1, OAP1 (recombinant, 6xHis-tag removed); experiment: SEC; OPNR-OAP1-OAP2 complex after removal of the 6xHis-tag; Superdex200 16/600

Row | Molecule | stoichiometry N [1] | stoichiometry N [2] | stoichiometry N ([2]; both partners purified)
1 | OAP2 (recombinant) (natural protein) | 1 | 1 | 
2 | B1 | 1 |  | 1
